Where “and” joins values, the source holds several entries; their conditions need not be identical. Equal values may be shown once.
What was measured:
[1] = target: bZIP1-VENUSN (m29) signal relative to bZIP11-CFPN (m30) signal; assay: multi-color BiFC in N. tabacum leaves, confocal microscopy; conditions: co-transformed with mCherry-tagged AKIN10; 115-118 nuclei; value is the median of the box plot; parent: est. 2.4; read off a plot
[2] = target: bZIP63 in which S29 or all three serines were mutated to alanine; assay: two-hybrid; protoplast two-hybrid (P2H) in Arabidopsis leaf protoplasts; GAL4-AD and GAL4-BD fusions, GAL-UAS4::GUS reporter normalised to 35S::NAN; without and with co-transformation of AKIN10; 16 hr

bZIP63 (split-CFP BiFC fusion) (from UniProt B9DGI8) S29A; S294A; S300A
other: VENUS/CFP (norm.) [1]: 1

B1: bZIP63 (protoplast two-hybrid fusion) (natural protein)
chain: MEKVFSDEEISGNHHWSVNGMTSLNRSASEWAFNRFIQESSAAADDGESTTACGVSVSSPPNVPVDSEEYRAFLKSKLNLACAAVAMKRGTFIKPQDTSGRSDNGGANESEQASLASSKATPMMSSAITSGSELSGDEEEADGETNMNPTNVKRVKRMLSNRESARRSRRRKQAHLSELETQVSQLRVENSKLMKGLTDVTQTFNDASVENRVLKANIETLRAKVKMAEETVKRLTGFNPMFHNMPQIVSTVSLPSETSNSPDTTSSQVTTPEIISSGNKGKALIGCKMNRTASMRRVESLEHLQKRIRSVGDQ
% of the signal with wt bZIP63 [2]: 30% and 40%

B2: bZIP11 (protoplast two-hybrid fusion) (natural protein)
chain: MESSSSGTTSSTIQTSSGSEESLMEQRKRKRMLSNRESARRSRMKKQKLLDDLTAQVNHLKKENTEIVTSVSITTQHYLTVEAENSVLRAQLDELNHRLQSLNDIIEFLDSSNNNNNNNMGMCSNPLVGLECDDFFVNQMNMSYIMNQPLMASSDALMY
% of the signal with wt bZIP63 [2]: 30% and 40%

Reference: paper PMC4558565
